Data on five molecules can be found in patent US20220265772A1, “USES OF DAN FAMILY BMP ANTAGONISTS FOR INHIBITING OCULAR NEOVASCULARIZATION AND TREATING OCULAR CONDITIONS” (9636137 Canada Inc., priority 2019, published 2022).

The subject of one data set is geographic atrophy (GA). The note with it: in vivo; cited from earlier work.
The subject of the next data set is mouse choroidal explants. Kind of data set: Choroidal explant sprouting in culture. It counts as cell-based. The settings on record: mouse choroidal explants, DAND5 plus NAC. Here is the method:
FIG. 1 is a panel with pictures, bar graphs, and graphs showing that Dand5 reduces VEGF-mediated sprouting angiogenesis in cultured endothelial cells. FIG. 1A: HUVECs grown in a fibrinogen gel were treated with VEGF to induce tube formation in the presence or absence of Dand5. […] FIG. 1B: HUVECs were plated to confluency and scratched to stimulate a wound in the presence or absence of Dand5. Scale bar, 100 μm. FIG. 1C: Quantification of tube formation in FIG. 1A n=3, *p<0.05, **p<0.01). FIG. 1E: Choroids were isolated from wild-type mice and cultured in vitro in the absence or presence of Dand5. […] FIG. 1F: Quantification of sprouting areas in choroidal sprouts (n=3, ***p<0.0001). […] FIG. 1H: HUVECs were cultured in the presence or absence of Dand5 and analyzed by immunofluorescence using antibodies against phospho-Histone 3 (PH3), a marker of cellular mitosis, and phalloidin and DAPI (nuclei). […] FIG. 1I: Quantification immunofluorescent staining of phospho-histone 3 positive cells. […] FIG. 1K: Quantification of immunofluorescent staining of cleaved caspase 3 (n=2, n.s.).
To evaluate the cellular mechanisms underlying the inhibitory effects of DAND5 on endothelial cells sprouting, we assessed the effects of DAND5 on endothelial cell migration and proliferation. […]
We exposed or not HUVECs to recombinant DAND5 and measured the concentration of free radicals using DCFDA and MitoSoxRed™. […]

A further data set deals with HUVECs. Nature of the data set: Free radicals / ROS in HUVECs (DCFDA, MitoSoxRed). It counts as cell-based, human. The note with it: HUVECs treated with DAND5 plus NAC. Here is the method:
FIG. 8 is a panel with graphs and pictures showing that Dand5 induces mitochondrial oxidative stress and alters ATP levels in HUVECs. FIG. 8A: HUVEC cells were treated with Dand5 in the presence or not of N-acetylcysteine (NAC) for up to 48 hours. Cells were then incubated with H2DCFDA. Hydrogen peroxide treated cells (H2O2) were included as a positive control. Fluorescence was measured at Ex: 485 nm and Em: 535 nm in a plate reader. Relative Fluorescence Units (RFU) were generated by normalizing the reading of each well to Hoescht staining (n=3,*p<0.05 **p<0.001). FIG. 8B: HUVEC cells were treated with Dand5 in for up to 48 hours. Cells were incubated with MitoSox Red. 3-nitro-proprionic acid (3-NP) treated cells were also examined as a positive control. Fluorescence was measured at Ex: 544 nm and Em: 590 nm. Relative Fluorescence Units (RFU) were generated by normalizing the reading of each well to Hoescht staining (n=3,*p<0.05). FIG. 8C: Primary culture of choroidal sprouts were treated with Dand5 in the absence or presence of NAC. FIG. 8D: Quantification of sprouting area by Image J. FIG. 8E: The ratio of NAD+ to NADH in whole cell extracts was determined using an Alcohol Dehydrogenase/Malate Dehydrogenase enzymatic cycling assay. Cells treated to hypoxic conditions (4% O2 for 3 hours) were included as a positive control (n=3,*p<0.05, **p<0.01). Likewise, glucose uptake was reduced in Dand5-treated HUVECs after 1 hour, while lactate levels were increased (lower panel). FIG. 8F: ATP levels were reduced in HUVECs exposed to Dand5 at 1, 6 and 24 hours (n=3,*p=0.05).
We exposed or not HUVECs to recombinant DAND5 and measured the concentration of free radicals using DCFDA and MitoSoxRed™. […] To further test this, we measure the NAD+/NADH ratio in cells treated or not with DAND5. […] Likewise, glucose uptake was reduced and lactate levels were increased in DAND5-treated HUVECs after 1 h (FIG. 8E, lower panel).

The next data set deals with Wnt signaling. Nature of the data set: Canonical Wnt signaling in HUVECs (immunoblotting, β-catenin immunofluorescence). It counts as cell-based, human. The procedure:
FIG. 12 is a panel with a schematic, pictures showing that Dand5 reduces canonical Wnt signaling in HUVECs. HUVECs were plated to confluence and received a 2 h scratch in the presence or absence of Dand5 ([…]) or IWR1 (3 μM). β-catenin (green) localization was examined by immunofluorescence with phalloidin and DAPI (nuclei) to identify the cell boundaries and nucleus. […] Scale bars, […]).
Cells were washed with cold PBS and extracted in Laemmli's buffer, followed by sonication. Samples were run on SDS-PAGE gels and transferred onto nitrocellulose membranes. Membranes were blocked with 5% Bovine Serum Albumin (BSA) and probed with primary antibodies overnight at 4° C.: beta-Catenin (Cell Signaling Technology), phospho-beta-catenin (Cell Signaling Technology), Axin2 (Cell Signaling Technology), beta-Actin (Santa Cruz Technologies). HRP-conjugated secondary antibodies (Vector Laboratories) were used to detect primary antibodies.
We next evaluated the molecular mechanisms underlying the effects of DAND5 on endothelial cells. […] Wnt signaling regulates fundamental aspects of vascular development, including cell fate specification, proliferation and survival. […] HUVECs were treated for up to 24 hours with DAND5 or IWR-1, an inhibitor of Wnt canonical signaling. Protein extracts were harvested and subjected to immunoblotting against downstream effectors of Wnt signaling. […] The levels of β-catenin at different subcellular localizations are regulated by a variety of processes including site-specific phosphorylation of β-catenin. In the absence of an active Wnt signaling, β-catenin localization at cellular junctions is reduced and cytoplasmic β-catenin associates with the destruction complex (6).
Background: A western blot detects proteins with antibodies after separation by electrophoresis.

Another data set concerns Wnt-induced angiogenesis. Kind of data set: Wnt1 and DAND5 co-injection during retinal vascular development (P1 to P5). It counts as in vivo, mouse. Here is the method:
FIG. 13 is a panel with pictures and graphs showing that Dand5 opposes Wnt1-mediated hypervascularization during retinal vascular development. FIG. 13A: Schematic representation of experimental design. C57B6 pups were injected at P1 with PBS, Dand5 (60 ng/mL), Wnt1, or Wnt1 and Dand5 together at various molar ratios (1N, 5N and 10N). FIG. 13B: Representative images of retinas treated with PBS, Dand5 (1N) or Wnt1 (1N). FIG. 13C: Representative images of retinas treated with PBS or with Wnt1 (5N and 10N) alone or in combination with Danb5. Dand5 Flatmounts retinas were stained with Isolectin B4 to visualize the vasculature. FIG. 13D: Quantification of vascular branches in treated eyes. […] To address the antagonism of DAND5 on Wnt-induced angiogenesis, retinas were injected with recombinant DAND5 (60 ng) with increasing concentrations of Wnt1 (0, 1, 5 or 10× molar ratio) at P1 and retinas were harvested at P5 (FIG. 13A).

Setting [1] is: HUVECs treated for up to 24 hours, immunoblotting.

Take bevacizumab: VEGF inhibitor: the “risk of geographic atrophy (GA) progression” value with geographic atrophy (GA) is “increased risks of geographic atrophy (GA) progression”.
With `CC(=O)N[C@@H](CS)C(=O)O` [NAC, N-acetyl cystein, reference compound], the “growth of DAND5-treated choroidal explants when also treated with NAC” value with mouse choroidal explants was “partially rescued”. Moreover, the “reversal of DAND5-induced free radical elevation” value with HUVECs is “could be overcome by exposing cells to N-acetyl cystein (NAC)”.
On to ranibizumab: VEGF inhibitor, for which, in the data set with geographic atrophy (GA), the “risk of geographic atrophy (GA) progression” value was “increased risks of geographic atrophy (GA) progression”.
Turning to `O=C(Nc1cccc2cccnc12)c1ccc(N2C(=O)[C@@H]3[C@H](C2=O)[C@@H]2C=C[C@H]3C2)cc1` [IWR-1, reference compound], in the data set with Wnt signaling (setting [1]), the “levels of Axin2” value was “increased levels of Axin2”, the “levels of phosphorylated beta-catenin” value is listed as “increased levels of phosphorylated beta-catenin” and the “levels of total beta-catenin” value is reported as “decreased levels of total beta-catenin”. The “cytoplasmic β-catenin” value in the data set on Wnt signaling (confluent HUVECs, 2 h scratch, Dand5 60n/mL or IWR1 3 μM) is given as “increased cytoplasmic β-catenin”.

B1: Wnt1: Wnt1 injected into mouse retinas, alone or with DAND5, at increasing molar ratios (protein, UniProt P04426 28-370, looked up)
Proto-oncogene Wnt-1: ANSSGRWWGIVNIASSTNLLTDSKSLQLVLEPSLQLLSRKQRRLIRQNPGILHSVSGGLQSAVRECKWQFRNRRWNCPTAPGPHLFGKIVNRGCRETAFIFAITSAGVTHSVARSCSEGSIESCTCDYRRRGPGGPDWHWGGCSDNIDFGRLFGREFVDSGEKGRDLRFLMNLHNNEAGRTTVFSEMRQECKCHGMSGSCTVRTCWMRLPTLRAVGDVLRDRFDGASRVLYGNRGSNRASRAELLRLEPEDPAHKPPSPHDLVYFEKSPNFCTYSGRLGTAGTAGRACNSSSPALDGCELLCCGRGHRTRTQRVTERCNCTFHWCCHVSCRNCTHTRVLHECL
For the molecule B1, in the data set with Wnt-induced angiogenesis (Wnt1 injected at P1, retinas at P5, IsoB4 staining), the retinal vascular density result was “retinal vascular density was increased”. Besides, in the data set with Wnt-induced angiogenesis (Wnt1 injections of 16.6 and 33.3 pmoles, P1 to P5), the “retinal vascularization at 16.6 and 33.3 pmoles” value is reported as “significant hypervascularization”. For the same molecule, in the data set with Wnt-induced angiogenesis (concomitant injection of DAND5 (60 ng) with Wnt1 (10 molar ratio)), the “rescue of the inhibitory effects of DAND5 on retinal angiogenesis” value was “partially rescued the inhibitory effects of DAND5 on retinal angiogenesis”. The “mutual antagonism on vascular branches” value in the data set on Wnt-induced angiogenesis (quantification of vascular branches in treated eyes) is given as “mutually antagonist activities”.
